{
  "source": "patent US9994626B2",
  "about": "“Stable polypeptides binding to human complement C5” (Swedish Orphan Biovitrum AB (publ), priority 2013, dated 2018)",
  "molecules": {"B1": {"name": "PSI0383: C5 binding compound with N52S, D53E, D60E and loop [L2] substitutions D36R, D37Q, S39E (protein)", "chain": "AEAKYAKEVLEAWDEIDRLPNLTIEQWLAFINKLDRQPEQSSELLSEAKKLSESQAPKVEGSLAEAKEAANAELDSYGVSDFYKRLIDKAKTVEGVEALKDAILAALP", "modifications": "Modified bacterial sequence"}},
  "key": {"[1]": {"test": "3 month stability test at 37° C., RPC", "format": "physicochemical", "source_text": "The 2 weeks data from example 2 is included in Table VIII below to make the interpretation easier."}, "[2]": {"test": "Accelerated stability study, 2 weeks at 37° C., SDS-PAGE and Reversed Phase HPLC (RPC)", "method": "The stability was measured by the appearance of new variants after the stability testing by SDS-PAGE and Reversed Phase HPLC (RPC). In both analyses the initial sample and the one subjected to the stability study were run in parallel. For the SDS-PAGE, 7.5 μg protein was loaded into each well.\nThe purified proteins were formulated in 25 mM NaP/125 mM NaCl pH 7.0 and subjected to an accelerated stability study for 2 weeks at 37° C. The stability was measured by the appearance of new variants after the stability testing by SDS-PAGE and Reversed Phase HPLC (RPC). In both analyses the initial sample and the one subjected to the stability study were run in parallel. For the SDS-PAGE, 7.5 μg protein was loaded into each well."}, "[3]": {"conditions": "after 2 weeks at 37° C., 25 mM NaP/125 mM NaCl pH 7.0"}},
  "data": [
    {"molecule": "B1", "values": [
      {"measurement": "3 months, 37° C. Main peak (% of total protein)", "setting": "[1]; RPC, 3 months, 37° C.", "result": "59 % of total protein"},
      {"measurement": "proportion of protein in the original form after 3 months at 37° C. versus PSI0242 after 2 weeks", "setting": "[1]; result in words", "result": "higher proportion of protein in the original form"},
      {"measurement": "stability when compared with PSI0242", "setting": "[2]; 2 weeks at 37° C., conclusion in words", "result": "increased stability"},
      {"measurement": "Main peak (% of total protein)", "setting": "[2]; RPC after 2 weeks at 37° C., 25 mM NaP/125 mM NaCl pH 7.0", "result": "91 % of total protein"},
      {"measurement": "2 weeks, 37° C. Main peak (% of total protein)", "setting": "[2]; RPC, 2 weeks, 37° C., data from example 2", "result": "91 % of total protein"},
      {"measurement": "RPC post peaks", "setting": "[2]; [3]", "result": 0},
      {"measurement": "RPC prepeaks", "setting": "[2]; [3]", "result": 0},
      {"measurement": "SDS-PAGE bands", "setting": "[2]; [3]", "result": 1}
    ]}
  ]
}
